Reference: PMC10920887, “Natural variation in BnaA9.NF-YA7 contributes to drought tolerance in Brassica napus L”

Target: T1, BnaA3.ABF4 (Brassica napus, UniProt X2C209 1-395)
T1 sequence: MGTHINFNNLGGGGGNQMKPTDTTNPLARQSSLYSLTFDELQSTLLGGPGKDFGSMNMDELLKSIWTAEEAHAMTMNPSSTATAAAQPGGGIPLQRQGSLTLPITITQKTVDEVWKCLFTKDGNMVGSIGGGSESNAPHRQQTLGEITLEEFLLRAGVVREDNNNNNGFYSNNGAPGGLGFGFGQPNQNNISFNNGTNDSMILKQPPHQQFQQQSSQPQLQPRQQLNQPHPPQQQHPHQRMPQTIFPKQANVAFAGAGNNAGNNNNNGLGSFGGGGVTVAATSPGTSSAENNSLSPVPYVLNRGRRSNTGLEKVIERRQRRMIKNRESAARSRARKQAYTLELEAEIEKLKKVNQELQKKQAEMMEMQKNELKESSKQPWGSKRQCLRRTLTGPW
Experiment: EMSA; not given in the material
Details: protein: recombinant; tags: GST (N-term, pGEX-4T-1); chain copies: 2; label: biotin

B1: BnaA9.NF-YA7 promoter ABRE probe (dsDNA)
DNA 1: ATCTGCCCGTAATCTGCTACGTGCAATCTAAACGCTT
DNA 2: AAGCGTTTAGATTGCACGTAGCAGATTACGGGCAGAT
Q: Does B1 bind?
A: Result: binds
